Measured values as given in PMC4444329, “Disabling Mitochondrial Peroxide Metabolism via Combinatorial Targeting of Peroxiredoxin 3 as an Effective Therapeutic Approach for Malignant Mesothelioma” (PLoS ONE, 2015).
Where a chain is given by its changes, count along the chain named. Names may count otherwise.

Columns and labels:
[1] = molecular target: the molecule itself; experiment: cross-linking; recombinant PRX3 incubated with indicated concentrations of thiostrepton (TS) for 30 min; reducing SDS-PAGE, immunoblot with anti-PRX3 antibody
[2] = molecular target: the molecule itself; experiment: cross-linking; in vitro PRX3 turnover: 100 μM PRX3, 5 μM E. coli TRX2, 0.5 μM E. coli TR, NADPH regenerating system (or TCEP), 0.2 mM TS or DMSO, 16-18 h at 37°C, successive additions of 100 μM H2O2; reducing SDS-PAGE, GelCode Blue stain
[3] = molecular target: the molecule itself; experiment: cross-linking; EE Mut cycled with and without TS as in the in vitro assay, treated with DTT, exchanged into 25 mM ammonium bicarbonate; intact mass by ESI-TOF MS

B1: Human recombinant PRX3 (peroxiredoxin 3), wild type, residues 62-256 (enzyme, UniProt P30048 62-256, looked up)
chain: APAVTQHAPYFKGTAVVNGEFKDLSLDDFKGKYLVLFFYPLDFTFVCPTEIVAFSDKANEFHDVNCEVVAVSVDSHFSHLAWINTPRKNGGLGHMNIALLSDLTKQISRDYGVLLEGSGLALRGLFIIDPNGVIKHLSVNDLPVGRSVEETLRLVKAFQYVETHGEVCPANWTPDSPTIKPSPAASKEYFQKVNQ
notes: peroxiredoxin 3 (PRX3), human, PRDX3 gene residues 62-256, codon optimized, in pET15b; also called rPRX3; WT PRX3; source: E. coli C41 (DE3), purified (nickel-NTA, Q-Sepharose FF, Superdex 200); not shown: His-tag, N-terminal, kept
binding result [1]: binds

B2: Human recombinant PRX3 C127S, residues 62-256 (enzyme, UniProt P30048 62-256, looked up)
chain: B1 chain with C66S
notes: peroxiredoxin 3 (PRX3), human, PRDX3 gene residues 62-256, non-catalytic cysteine replaced with serine; also called Cys127 mutant; source: E. coli C41 (DE3), purified (nickel-NTA, Q-Sepharose FF, Superdex 200); not shown: His-tag, N-terminal, kept
binding result [2]: binds

B3: Engineered dimer of PRX3, S139E/A142E (EE Mut), residues 62-256 (enzyme, human, UniProt P30048 62-256, looked up)
chain: B1 chain with S78E, A81E
notes: peroxiredoxin 3 (PRX3), human, PRDX3 gene residues 62-256, two charged residues introduced into the dimer-dimer interface; His-tag removed by digestion with biotinylated thrombin; Measured mass of the reduced monomer 21640.6 amu; also called EE mutant; dimeric variant of PRX3; source: E. coli C41 (DE3), purified (nickel-NTA, Q-Sepharose FF, Superdex 200); not shown: His-tag, N-terminal, cleaved
stoichiometry N [3]: 2
